Experimental data: paper PMC6677593 (Molecular cancer therapeutics, 2019)

What was measured:
Human LIFR-Fc = molecular target: T1, Human LIFR-Fc (human, UniProt P42702 45-833); experiment: SPR
T1 sequence (looked up): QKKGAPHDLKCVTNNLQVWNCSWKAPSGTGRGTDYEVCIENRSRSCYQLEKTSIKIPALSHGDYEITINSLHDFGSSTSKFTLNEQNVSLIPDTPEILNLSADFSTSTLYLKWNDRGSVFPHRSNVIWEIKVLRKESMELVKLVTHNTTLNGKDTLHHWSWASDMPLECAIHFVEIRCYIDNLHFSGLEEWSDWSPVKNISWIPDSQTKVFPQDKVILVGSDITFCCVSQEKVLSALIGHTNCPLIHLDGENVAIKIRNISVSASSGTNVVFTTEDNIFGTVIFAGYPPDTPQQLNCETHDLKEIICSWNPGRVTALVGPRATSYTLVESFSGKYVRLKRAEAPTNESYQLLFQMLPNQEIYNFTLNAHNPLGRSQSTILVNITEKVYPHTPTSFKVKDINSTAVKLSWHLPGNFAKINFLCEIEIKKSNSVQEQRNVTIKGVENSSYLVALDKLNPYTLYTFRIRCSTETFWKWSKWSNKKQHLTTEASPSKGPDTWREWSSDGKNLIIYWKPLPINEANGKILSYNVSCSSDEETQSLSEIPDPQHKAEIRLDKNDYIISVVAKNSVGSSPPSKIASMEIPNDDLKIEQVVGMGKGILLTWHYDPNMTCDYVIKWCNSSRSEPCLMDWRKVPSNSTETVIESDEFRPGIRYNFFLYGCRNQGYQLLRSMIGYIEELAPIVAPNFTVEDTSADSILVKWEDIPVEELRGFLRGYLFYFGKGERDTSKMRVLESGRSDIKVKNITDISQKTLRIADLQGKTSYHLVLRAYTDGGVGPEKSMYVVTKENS

[1] = molecular target: LIFR labelled with fluorescent dye (MST target) (UniProt P42702 45-1097, fluorescent dye, NHS chemistry); experiment: MST

B1: Recombinant human leukemia inhibitory factor (LIF) (ligand)
chain: not shown
What does the source list for B1?
Kd (Human LIFR-Fc): 7 µM; Kd [1]: 0.00136 µM
